Results on two molecules are retold here after publication PMC4861984, “Deciphering a unique biotin scavenging pathway with redundant genes in the probiotic bacterium Lactococcus lactis” (Scientific Reports, 2016).

The target in data set [1] is T1, BirA_ec (Escherichia coli, UniProt P06709).
T1 construct: gene birA
Put plainly: TLC of biotinoyl-5'-AMP from [alpha-32P]ATP; MALDI-TOF of biotinylated AccB87. The data set is classed as biochemical. The note with it: 20 uM biotin, 5 uM ATP, 5 mM MgCl2, 100 mM KCl, pH 8, 37 °C; AccB87 acceptor.

The target of data set [2] is T2, BirA1_LL (Lactococcus lactis IL1403, UniProt Q9CEQ6 1-323).
T2 sequence: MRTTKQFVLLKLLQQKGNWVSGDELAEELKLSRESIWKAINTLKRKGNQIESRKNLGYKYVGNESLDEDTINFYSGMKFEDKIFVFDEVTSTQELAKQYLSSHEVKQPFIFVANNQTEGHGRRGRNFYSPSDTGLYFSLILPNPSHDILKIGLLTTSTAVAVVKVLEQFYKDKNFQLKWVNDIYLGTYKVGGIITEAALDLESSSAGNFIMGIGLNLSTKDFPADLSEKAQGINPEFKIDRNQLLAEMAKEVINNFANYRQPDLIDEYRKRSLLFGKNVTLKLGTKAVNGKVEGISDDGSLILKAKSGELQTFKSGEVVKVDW
The data set can be described thus: EMSA; 100 uM biotin + 100 uM ATP (forms biotinoyl-AMP); 3-12 pmol protein; Roche binding buffer (composition, pH, temperature not stated), 0.2 pmol DIG probe in 15 ul, 100 uM biotin + 100 uM ATP, ~1 h; native PAGE 7% (Methods) or 7.5%. The note with it: protein: recombinant; tags: His6 (pET28a); chain copies: 2; label: digoxigenin; blunt. For orientation: In EMSA bound probe runs differently from free probe, usually more slowly.

In data set [3] the target is T3, BirA2_LL (Lactococcus lactis IL1403, UniProt Q9CED9 1-250).
T3 sequence: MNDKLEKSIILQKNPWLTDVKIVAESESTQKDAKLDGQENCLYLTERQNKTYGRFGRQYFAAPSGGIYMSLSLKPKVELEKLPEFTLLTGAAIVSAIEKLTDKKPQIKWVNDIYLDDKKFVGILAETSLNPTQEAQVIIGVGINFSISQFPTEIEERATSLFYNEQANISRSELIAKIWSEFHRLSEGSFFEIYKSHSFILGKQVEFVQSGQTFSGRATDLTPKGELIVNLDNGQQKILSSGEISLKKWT
Put plainly: EMSA; 100 uM biotin + 100 uM ATP; 3-12 pmol protein; Roche binding buffer (composition, pH, temperature not stated), 0.2 pmol DIG probe in 15 ul, 100 uM biotin + 100 uM ATP, ~1 h; native PAGE 7% (Methods) or 7.5%. As to conditions: protein: recombinant; tags: His6 (pET28a); chain copies: 2; label: digoxigenin; blunt.

T1 sequence (P06709 whole entry): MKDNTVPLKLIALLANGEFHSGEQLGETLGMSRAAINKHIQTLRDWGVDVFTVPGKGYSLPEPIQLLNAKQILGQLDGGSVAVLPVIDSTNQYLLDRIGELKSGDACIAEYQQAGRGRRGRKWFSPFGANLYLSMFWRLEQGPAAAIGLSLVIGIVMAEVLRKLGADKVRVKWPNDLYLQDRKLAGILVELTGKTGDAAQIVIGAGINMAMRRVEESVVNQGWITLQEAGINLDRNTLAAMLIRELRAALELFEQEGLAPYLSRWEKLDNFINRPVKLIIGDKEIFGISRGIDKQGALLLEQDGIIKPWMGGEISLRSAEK

Take `O=C(O)CCCC[C@@H]1SC[C@@H]2NC(=O)N[C@@H]21` [biotin]: the “TLC of biotinoyl-5'-AMP from [alpha-32P]ATP; MALDI-TOF of biotinylated AccB87” value in data set [1] is recorded as “The formation of the biotinylated AccB87 by E. coli BirA”.

B1: bioY_LL (bioY1 promoter probe) (dsDNA)
DNA 1: CAAATAATAAAATTAACAGTTAACCTAAATTTGATTTTAGGGTTACTGTTTGATATG
DNA 2: CATATCAAACAGTAACCCTAAAATCAAATTTAGGTTAACTGTTAATTTTATTATTTG
Take B1: the figures for the binding result in data set [2] and in data set [3] were “binds” and “no binding”, respectively.
